Inhibition of VEGF-induced proliferation of HUVECs (MTT assay), 40 µL conditioned medium from rAAV.sFlt-1-transduced 293 cells data for one substance are collected here from patent US20130323302A1.

The assay addresses recombinant VEGF (UniProt P15692). Put plainly: cell-based or functional assay.

Chain of recombinant VEGF (P15692 other isoform, or with tags, fused parts or gaps limits assumed): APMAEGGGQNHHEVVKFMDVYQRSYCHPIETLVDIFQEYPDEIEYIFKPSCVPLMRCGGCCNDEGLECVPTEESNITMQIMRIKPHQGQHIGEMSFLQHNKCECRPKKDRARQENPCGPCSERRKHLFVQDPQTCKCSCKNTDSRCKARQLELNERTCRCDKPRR

“soluble Fms-related tyrosine kinase-1 (sFLT-1) protein, human, secreted by rAAV.sFlt-1-transduced 293 cells (from UniProt P17948 27-450)”: the inhibition of VEGF-induced proliferation of HUVECs (MTT assay), 40 µL conditioned medium from rAAV.sFlt-1-transduced 293 cells amounted to 32%.
